Measured values: US20140308285A1 (Amgen, published 2014)
Like-named read-outs stand apart in the source and are kept apart here.

T1: cynomolgus monkey CD3 (CD3 epsilon chain) on cynomolgus monkey T cells (cynomolgus monkey (Macaca fascicularis), UniProt Q95LI5 22-198)
T1 chain: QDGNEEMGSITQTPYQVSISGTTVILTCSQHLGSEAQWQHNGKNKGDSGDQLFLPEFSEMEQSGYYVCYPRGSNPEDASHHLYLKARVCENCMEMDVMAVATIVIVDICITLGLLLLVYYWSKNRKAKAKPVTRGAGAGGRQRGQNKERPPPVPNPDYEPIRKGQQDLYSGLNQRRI


Experiments:
[1] = molecular target: T2, human CD3 (CD3 epsilon chain) on human T cells (human, UniProt P07766 22-207); assay: FACS on isolated human T cells, FITC anti-human light chain secondary antibody
T2 construct: The assay used isolated human T cells, which carry CD3 as part of the TCR-CD3 complex; also called CD3ε
Description: (§1) The heterodimeric bispecific antibodies described in Example 1 were produced in HEK 293 cells and were assayed by fluorescence activated cell sorting (FACS) for binding to T cells, which express CD3, and to a human ovarian cancer cell line, Ovcar-8, which expresses mesothelin. Briefly, the heterodimeric bispecific antibodies were incubated with about 50,000 Ovcar-8 cells or isolated human or cynomolgus monkey T cells at 4° C. for one hour. The cells were then washed and stained with a fluorescein isothiocyanate (FITC)-conjugated anti-human light chain secondary antibody and analyzed by flow cytometry. The relative binding was represented by the geometric mean of fluorescence intensity.

[2] = molecular target: T1, cynomolgus monkey CD3 (CD3 epsilon …); assay: cell-based or functional assay
[3] = molecular target: T2, human CD3 (CD3 epsilon chain) on human …; assay: FACS on isolated human T cells, FITC anti-human light chain secondary antibody; remark: listed apart in the source
Description: as §1
(§2) Another set of constructs was made by methods similar to those used above using the same pair of anti-MSLN VH and VL regions as used in most constructs described above and a different pair of anti-CD3 VH and VL regions than used in most of the constructs described above. […] These constructs were tested using the assays described above, as well as the cynomolgus monkey T cell-dependent cell cytolysis (called “cyno TDCC”) assay described below.

[4] = molecular target: T1, cynomolgus monkey CD3 (CD3 epsilon …); assay: FACS on isolated cynomolgus monkey T cells, FITC anti-human light chain secondary antibody
Description: as §1, §2

T2 sequence (P07766 22-207 limits assumed): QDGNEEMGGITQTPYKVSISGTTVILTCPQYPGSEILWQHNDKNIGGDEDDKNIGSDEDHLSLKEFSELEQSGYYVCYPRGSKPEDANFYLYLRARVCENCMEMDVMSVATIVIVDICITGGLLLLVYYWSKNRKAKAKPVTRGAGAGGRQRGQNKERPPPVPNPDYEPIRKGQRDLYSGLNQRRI

| Binder | FACS binding (geometric mean) [1] | Cyno TDCC EC50 (pM), Ovcar-8 cells with cynomolgus monkey T cells [2] [pM] | FACS binding (geometric mean) [3] | FACS binding (geometric mean) [4] | Cyno TDCC Max killing (%), Ovcar-8 cells with cynomolgus monkey T cells [2] [%] |
| --- | --- | --- | --- | --- | --- |
| H71362.2 (bispecific antibody) chain 1: EVQLVESGGGLVKPGVSLRLSCAASGFTFSRYGMNWVRQAPGKGLEWVSSISSSGTYIKYADSVKGRFTISRDNAKNSLNLQMNSLRAEDTAVYYCARDRDRYPLDYWGQGTLVTVSSASTKGPQVQLQESGPGLVKPSETLSLTCTVSGGSIISHYWSWIRQPPGKGLEWIGYIYYSGSTNYNPSLKSRVTISVDTSKNQFSLKLTSVTAADTAVYYCARDGWSAFDYWGQGTLVTVSSASTKGPSVFPLAPCSRSTSESTAALGCLVKDYFPEPVTVSWNSGALTSGVHTFPAVLQSSGLYSLSSVVTVPSSNFGTQTYTCNVDHKPSNTKVDKTVGGGGSAAAVPRDLEVVAATPTSLLISWDAIGLYPYYYRITYGETGGNSPVQEFTVPGSKSTATISGLKPGVDYTITVYAVSGIFGWNNSKPISINYRTGSSDYKDDDDKGSSHHHHHH chain 2: SYELTQPPSVSVSPGQTARITCSGDALPKKYAYWYQQKSGQAPVLVIYEATKRPSGIPERFSGSSSGTMATLTLSGAQVEDEADYYCYSTDSTNYHWVFGGGTKLTVLGTVAAPDIQMTQSPSSLSASVGDRVTITCRASQGIRNALGWYQQKPGKAPKRLIYAASSLQSGVPSRFSGSGSGTEFTLTISSLQPEDFATYYCLQHNSYPRTFGQGTKVEIRRTVAAPSVFIFPPSDEQLKSGTASVVCLLNNFYPREAKVQWKVDNALQSGNSQESVTEQDSKDSTYSLSSTLTLSKADYEKHKVYACEVTHQGLSSPVTKSFNRGEC | 354 | – | – | – | – |
| P57216.9 (bispecific antibody) chain 1: QVQLQESGPGLVKPSQTLSLTCTVSGGSINNNNYYWTWIRQHPGKGLEWIGYIYYSGSTFYNPSLKSRVTISVDTSKTQFSLKLSSVTAADTAVYYCAREDTMTGLDVWGQGTLVTVSSASTKGPEVQLVESGGGLVKPGVSLRLSCAASGFTFSRYSMNWVRQAPGKGLEWVSSISSSGTYIKYADSVKGRFTISRDNAKNSLNLQMNSLRAEDTAVYYCARDRDRYPLDYWGQGTLVTVSSASTKGPSVFPLAPCSRSTSESTAALGCLVKDYFPEPVTVSWNSGALTSGVHTFPAVLQSSGLYSLSSVVTVPSSNFGTQTYTCNVDHKPSNTKVDKTVGGGGSAAAVPRDLEVVAATPTSLLISWDAPHHGVAYYRITYGETGGNSPVQEFTVPGSKSTATISGLKPGVDYTINVYAVLAYPRGYPLSKPISINYRTDYKDDDDKGSSHHHHHH chain 2: DIQMTQSPSSLSASVGDRVTITCRASQSINNYLNWYQQKPGKAPTLLIYAASSLQSGVPSRFSGSRSGTDFTLTISSLQPEDFAAYFCQQTYSNPTFGQGTKVEVKRTVAAPSSYELTQPPSVSVSPGQTARITCSGDALPKKYAYWYQQKSGQAPVLVIYEATKRPSGIPERFSGSSSGTMATLTLSGAQVEDEADYYCYSTDSTNYHWVFGGGTKLTVLGQPKAAPSVTLFPPSSEELQANKATLVCLISDFYPGAVTVAWKADSSPVKAGVETTTPSKQSNNKYAASSYLSLTPEQWKSHRSYSCQVTHEGSTVEKTVAPTECS | 103 | – | – | – | – |
| H71365.2 (bispecific antibody, also called H71364.2) chain 1: QVQLVESGGGVVQPGRSLRLSCAASGFTFSSYGMHWVRQAPGKGLEWVAVISYPGNTKYYADSVKGRFTISRDNSKNTLYLQMNSLRAEDTAVYFCARDQKEWRLIFDYWGQGTLVTVSSGGGGSGGGGSQVQLQESGPGLVKPSQTLSLTCTVSGGSINNNNYYWTWIRQHPGKGLEWIGYIYYSGSTFYNPSLKSRVTISVDTSKTQFSLKLSSVTAADTAVYYCAREDTMTGLDVWGQGTTVTVSSASTKGPSVFPLAPCSRSTSESTAALGCLVKDYFPEPVTVSWNSGALTSGVHTFPAVLQSSGLYSLSSVVTVPSSNFGTQTYTCNVDHKPSNTKVDKTVGGGGSAAAVPRDLEVVAATPTSLLISWDAPHHGVAYYRITYGETGGNSPVQEFTVPGSKSTATISGLKPGVDYTINVYAVLAYPRGYPLSKPISINYRTDYKDDDDKGSSHHHHHH chain 2: DIQMTQSPSSVSASVGDRVTITCRASQGISSWLAWYQQKPGKAPKLLIYAASSLQSGVPSRFSGSGSGAAFTLTISSLQPEDFATYFCQQANSFPLTFAGGTKVDIKRGGGGSGGGGSDIQMTQSPSSLSASVGDRVTITCRASQSINNYLNWYQQKPGKAPTLLIYAASSLQSGVPSRFSGSRSGTDFTLTISSLQPEDFAAYFCQQTYSNPTFGQGTKVEVKRTVAAPSVFIFPPSDEQLKSGTASVVCLLNNFYPREAKVQWKVDNALQSGNSQESVTEQDSKDSTYSLSSTLTLSKADYEKHKVYACEVTHQGLSSPVTKSFNRGEC | – | 8.1 | 66 | 276 | 86 |

Further lines, with some results ahead:

| FACS binding (geometric mean) [1] | Cyno TDCC EC50 (pM), Ovcar-8 cells with cynomolgus monkey T cells [2] [pM] | FACS binding (geometric mean) [3] | FACS binding (geometric mean) [4] | Binder | Cyno TDCC Max killing (%), Ovcar-8 cells with cynomolgus monkey T cells [2] [%] |
| --- | --- | --- | --- | --- | --- |
| 290 | – | – | – | P69058.3 (bispecific antibody) chain 1: QVQLQESGPGLVKPSQTLSLTCTVSGGSINNNNYYWTWIRQHPGKGLEWIGYIYYSGSTFYNPSLKSRVTISVDTSKTQFSLKLSSVTAADTAVYYCAREDTMTGLDVWGQGTLVTVSSGGGGSGGGGSSSYELTQPPSVSVSPGQTARITCSGDALPKKYAYWYQQKSGQAPVLVIYEATKRPSGIPERFSGSSSGTMATLTLSGAQVEDEADYYCYSTDSTNYHWVFGGGTKLTVLGASTKGPSVFPLAPCSRSTSESTAALGCLVKDYFPEPVTVSWNSGALTSGVHTFPAVLQSSGLYSLSSVVTVPSSNFGTQTYTCNVDHKPSNTKVDKTVGGGGSAAAVPRDLEVVAATPTSLLISWDAPHHGVAYYRITYGETGGNSPVQEFTVPGSKSTATISGLKPGVDYTINVYAVLAYPRGYPLSKPISINYRTDYKDDDDKGSSHHHHHH chain 2: EVQLVESGGGLVKPGVSLRLSCAASGFTFSRYGMNWVRQAPGKGLEWVSSISSSGTYIKYADSVKGRFTISRDNAKNSLNLQMNSLRAEDTAVYYCARDRDRYPLDYWGQGTLVTVSSGGGGSGGGGSDIQMTQSPSSLSASVGDRVTITCRASQSINNYLNWYQQKPGKAPTLLIYAASSLQSGVPSRFSGSRSGTDFTLTISSLQPEDFAAYFCQQTYSNPTFGQGTKVEVKRTVAAPSVFIFPPSDEQLKSGTASVVCLLNNFYPREAKVQWKVDNALQSGNSQESVTEQDSKDSTYSLSSTLTLSKADYEKHKVYACEVTHQGLSSPVTKSFNRGEC | – |
| 179 | – | – | – | P69059.3 (bispecific antibody) chain 1: SYELTQPPSVSVSPGQTARITCSGDALPKKYAYWYQQKSGQAPVLVIYEATKRPSGIPERFSGSSSGTMATLTLSGAQVEDEADYYCYSTDSTNYHWVFGGGTKLTVLGGGGGSGGGGSQVQLQESGPGLVKPSQTLSLTCTVSGGSINNNNYYWTWIRQHPGKGLEWIGYIYYSGSTFYNPSLKSRVTISVDTSKTQFSLKLSSVTAADTAVYYCAREDTMTGLDVWGQGTTVTVSSASTKGPSVFPLAPCSRSTSESTAALGCLVKDYFPEPVTVSWNSGALTSGVHTFPAVLQSSGLYSLSSVVTVPSSNFGTQTYTCNVDHKPSNTKVDKTVGGGGSAAAVPRDLEVVAATPTSLLISWDAPHHGVAYYRITYGETGGNSPVQEFTVPGSKSTATISGLKPGVDYTINVYAVLAYPRGYPLSKPISINYRTDYKDDDDKGSSHHHHHH chain 2: DIQMTQSPSSLSASVGDRVTITCRASQSINNYLNWYQQKPGKAPTLLIYAASSLQSGVPSRFSGSRSGTDFTLTISSLQPEDFAAYFCQQTYSNPTFGQGTKVEVKGGGGSGGGGSEVQLVESGGGLVKPGVSLRLSCAASGFTFSRYSMNWVRQAPGKGLEWVSSISSSGTYIKYADSVKGRFTISRDNAKNSLNLQMNSLRAEDTAVYYCARDRDRYPLDYWGQGTLVTVSSRTVAAPSVFIFPPSDEQLKSGTASVVCLLNNFYPREAKVQWKVDNALQSGNSQESVTEQDSKDSTYSLSSTLTLSKADYEKHKVYACEVTHQGLSSPVTKSFNRGEC | – |
| – | 18.8 | 11 | 110 | H69072.4 (bispecific antibody) chain 1: DIQMTQSPSSVSASVGDRVTITCRASQGISSWLAWYQQKPGKAPKLLIYAASSLQSGVPSRFSGSGSGAAFTLTISSLQPEDFATYFCQQANSFPLTFAGGTKVDIKRGGGGSGGGGSQVQLQESGPGLVKPSQTLSLTCTVSGGSINNNNYYWTWIRQHPGKGLEWIGYIYYSGSTFYNPSLKSRVTISVDTSKTQFSLKLSSVTAADTAVYYCAREDTMTGLDVWGQGTTVTVSSASTKGPSVFPLAPCSRSTSESTAALGCLVKDYFPEPVTVSWNSGALTSGVHTFPAVLQSSGLYSLSSVVTVPSSNFGTQTYTCNVDHKPSNTKVDKTVGGGGSAAAVPRDLEVVAATPTSLLISWDAPHHGVAYYRITYGETGGNSPVQEFTVPGSKSTATISGLKPGVDYTINVYAVLAYPRGYPLSKPISINYRTDYKDDDDKGSSHHHHHH chain 2: DIQMTQSPSSLSASVGDRVTITCRASQSINNYLNWYQQKPGKAPTLLIYAASSLQSGVPSRFSGSRSGTDFTLTISSLQPEDFAAYFCQQTYSNPTFGQGTKVEVKGGGGSGGGGSQVQLVESGGGVVQPGRSLRLSCAASGFTFSSYGMHWVRQAPGKGLEWVAVISYPGNTKYYADSVKGRFTISRDNSKNTLYLQMNSLRAEDTAVYFCARDQKEWRLIFDYWGQGTLVTVSSRTVAAPSVFIFPPSDEQLKSGTASVVCLLNNFYPREAKVQWKVDNALQSGNSQESVTEQDSKDSTYSLSSTLTLSKADYEKHKVYACEVTHQGLSSPVTKSFNRGEC | 91 |
